Changes are numbered by the printed parent chain. Like-named read-outs stand apart in the source and are kept apart here.
T1: SpoIIIE motor domain (SpoIIIE C-terminal) (Bacillus subtilis, UniProt P21458 177-787)
T1 sequence: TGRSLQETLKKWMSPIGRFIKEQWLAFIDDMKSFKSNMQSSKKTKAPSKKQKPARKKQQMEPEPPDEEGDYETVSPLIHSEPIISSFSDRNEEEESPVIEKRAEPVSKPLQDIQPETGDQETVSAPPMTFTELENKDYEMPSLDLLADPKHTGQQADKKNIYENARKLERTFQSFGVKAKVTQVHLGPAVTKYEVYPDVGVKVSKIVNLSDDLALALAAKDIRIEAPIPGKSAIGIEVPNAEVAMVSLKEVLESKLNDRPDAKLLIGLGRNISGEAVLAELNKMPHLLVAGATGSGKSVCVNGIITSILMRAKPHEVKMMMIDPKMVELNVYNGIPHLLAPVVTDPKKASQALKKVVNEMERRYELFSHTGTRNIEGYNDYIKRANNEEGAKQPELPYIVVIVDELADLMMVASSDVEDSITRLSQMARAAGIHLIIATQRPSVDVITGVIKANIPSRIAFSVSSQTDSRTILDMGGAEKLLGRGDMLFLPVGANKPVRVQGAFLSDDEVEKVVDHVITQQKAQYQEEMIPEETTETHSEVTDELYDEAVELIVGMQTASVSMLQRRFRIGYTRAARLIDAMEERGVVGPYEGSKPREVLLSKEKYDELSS

T2: SpoIIIE467 (Walker A mutant) (Bacillus subtilis, UniProt P21458 177-787, G467S)
T2 sequence: T1 sequence with G291S

B1: SpoIIIE C-terminal motor domain (residues 177-787) with a C-terminal hexahistidine tag (domain or fragment, Bacillus subtilis, UniProt P21458 177-787, looked up)
chain: T1 sequence
B2: DNANS (43 bp, no SRS) (dsDNA)
DNA 1: GCGGAGGCGGGAGGCGGAGATCTTACCGCTGTTGAGATCCAGC
DNA 2: GCTGGATCTCAACAGCGGTAAGATCTCCGCCTCCCGCCTCCGC

Key:
[1] = target: the molecule itself; assay: negative-stain electron microscopy
[2] = target: T1, SpoIIIE motor domain (SpoIIIE …); assay: fluorescence anisotropy
[3] = target: T1, SpoIIIE motor domain (SpoIIIE …); assay: fluorescence anisotropy; remark: listed apart in the source
[4] = target: T1, SpoIIIE motor domain (SpoIIIE …); assay: fluorescence anisotropy; remark: listed apart in the source
[5] = target: T2, SpoIIIE467 (Walker A mutant); assay: fluorescence anisotropy

Binder | stoichiometry N [1] | Kd [2] | Kd [3] | Kd [4] | Kd [5]
B1 | 6 | – | – | – | –
B2 | – | 43 ± 9 nM | 61 ± 11 nM | 60 ± 9 nM | 63 ± 3 nM

— publication PMC3936747 (Nucleic Acids Research, 2013)
